Patent publication US12303551B2, “Cellular immunotherapy compositions and uses thereof” (CERO THERPEUTICS HOLDINGS, INC., priority 2018, dated 2025)

Key:
[1] = tested on: HCC827 adenocarcinoma cells; assay: HCC827 xenograft in NSG mice with osimertinib, bioluminescence imaging and immunofluorescence; assay type: in vivo
Method: Growth of HCC827/luceriferase^+ cells in NSG mice upon adoptive transfer of purified hCER122 modified CD4+ T cells or hCER122 modified CD+ T cells with concomitant targeted inhibitor therapy was measured by bioluminescence imaging. Data represents mean values (n=5 mice/treatment group).
Tumor specimens were stained with anti-EGFR (tumor antigen), anti-CD4, anti-PD1, and DAPI counter-stain (left image).
CD3+ or CD4+ T cells were purified from PBMCs, activated, and transduced with lentiviral vector comprising hCER122 nucleic acid. hCER122 is a human CER122 construct comprising a Tim4 binding domain, a Tim4 transmembrane domain, TLR2 engulfment signaling domain, and Dap12 engulfment signaling domain and comprises an amino acid sequence of SEQ ID NO:179. Transduced T cells were expanded. hCER122 modified CD3+ T cells (2.5×10^6 or 5×10^6) or hCER122 modified CD4+ T cells (2.5×10^6 or 5×10^6) were infused into NSG mice engrafted with HCC827 adenocarcinoma cells (2 million/mouse). HCC827 xenograft mice also received 1 mg/kg osimertinib post-engraftment. […] Microscopy images of immunofluorescence stained tumor cells from HCC827 xenograft model at day 16. Tumor specimens were stained with anti-EGFR (tumor antigen), anti-CD4, anti-PD1, and DAPI counter-stain.

[2] = tested on: HPV+ SCC152/luceriferase+ cells; assay: SCC152/luciferase xenograft in NSG mice, bioluminescence imaging; assay type: in vivo; conditions: E7 TCR CD8+ T cells + mock transduced CD4+ T cells; compared to untreated controls
Method: HPV+ SCC152 engrafted NSG mice were treated with HPV E7 TCR modified CD8+ T cells+CD4+ T cells (mock transduced), HPV E7 TCR modified CD8+ T cells+hCER104 modified CD4+ T cells, or untreated. FIG. 74B is a graph of mean values of bioluminescence signal intensities obtained for treatment group.
HPV+ SCC152/luceriferase^+ cells were engrafted in NSG mice. Once tumors were established, mice were treated with HPV E7 specific TCR (SEQ ID NO:84) modified CD8+ T cells+mock transduced CD4+ T cells, HPV E7 specific TCR modified CD8+ T cells+hCER104 (SEQ ID NO:176) modified CD4+ T cells, or untreated (n=5 per treatment group). HPV E7 CD8+ T cells and hCER104 CD4+ T cells were administered at a 1:1 ratio. Tumor volume was measured over time by bioluminescence imaging (see, FIGS. 74A-74B).

SCC152 cells = assay: Magnitude breadth analysis of phagocytosis by CER type (pHrodo red / CELLTRACE violet microscopy); assay type: cell-based; conditions: CD4+ T cells, pHrodo red stained SCC152
Method: Top image is an enlargement of a cell in the lower left image showing a SCC152 cell engulfed by CER126-transduced CD4+ T cell. […] White arrow indicates CD8+ T cell transduced with E7-specific TCR and that is pHrodo Red negative (lower left panel of FIG. 60B). Software rendition of phagocytosis (lower right panel of FIG. 60B).
Various CER-modified CD4+ T cells were also evaluated for breadth of response to determine whether a particular CER confers a broad phagocytic response of low magnitude (e.g., 10% engulfment in 90% of cells) or a less frequent but strong phagocytic response (e.g., 90% engulfment in 10% of cells) in the host cells. CD8+ T cells were transduced with HPV16 E7 specific TCR as described in Example 1. CD4+ T cells were transduced with lentiviral vectors comprising a CER21, CER27, CER104, CER116, or CER117 nucleic acid. Mock-transduced (vector alone) CD4+ T cell were used as control. CD4+/CER+ and CD8+/E7 TCR+ T cells were stained with CELLTRACE violet. HPV16 E7+ head and neck squamous cell carcinoma cells (SCC152) were stained with pHrodo red. HPV16 E7 TCR transduced CD8+ T cells and selected CER transduced CD4+ T cells were mixed at a 1:1 ratio and co-cultured with SCC152 cells at a 1:1 ratio for 8 hours. Phagocytosis of target SCC152 cells by CER-transduced CD4+ T cells was analyzed by fluorescence microscopy. […] The horizontal axis represents the % area of CER-transduced CD4+ T cells having engulfment or % area of the CER-transduced CD4+ T cells taken up by target SCC152 cells. This measure was rarely above 40% across CER types tested. The vertical axis represents the proportion of CER-transduced CD4+ T cells that were phagocytic. For CER104, about 20% of CER104-transduced CD4+ T cells have more than 10% engulfment. For CER117-transduced CD4+ T cells, less than 10% have more than 10% engulfment.

B1: hCER122: human CER122 construct: Tim4 binding domain, Tim4 transmembrane domain, TLR2 and Dap12 engulfment signaling domains; SEQ ID NO:179 (protein)
chain: ETVVTEVLGHRVTLPCLYSSWSHNSNSMCWGKDQCPYSGCKEALIRTDGMRVTSRKSAKYRLQGTIPRGDVSLTILNPSESDSGVYCCRIEVPGWFNDVKINVRLNLQRASTTTHRTATTTTRRTTTTSPTTTRQMTTTPAALPTTVVTTPDLTTGTPLQMTTIAVFTTANTCLSLTPSTLPEEATGLLTPEPSKEGPILTAESETVLPSDSWSSVESTSADTVLLTSKESKVWDLPSTSHVSMWKTSDSVSSPQPGASDTAVPEQNKTTKTGQMDGIPMSMKNEMPISQLLMIIAPSLGFVLFALFVAFLHRFHGLWYMKMMWAWLQAKRKPRKAPSRNICYDAFVSYSERDAYWVENLMVQELENFNPPFKLCLHKRDFIPGKWIIDNIIDSIEKSHKTVFVLSENFVKSEWCKYELDFSHFRLFDENNDAAILILLEPIEKKAIPQRFCKLRKIMNTKTYLEWPMDEAQREGFWVNLRAAIKSYFLGRLVPRGRGAAEAATRKQRITETESPYQELQGQRSDVYSDLNTQRPYYK
modifications: hCER122
- anti-tumor response (bioluminescence) ([1]; CER-modified CD3+ and CD4+ T cells plus 1 mg/kg osimertinib, compared to osimertinib alone): enhanced anti-tumor responses
- tumor elimination (bioluminescence) ([1]; CER-modified CD4+ T cells plus 1 mg/kg osimertinib): eliminated tumors
- T cell infiltration of tumor, immunofluorescence staining ([1]; day 16, anti-EGFR, anti-CD4, anti-PD1, DAPI): infiltration of PD1+CD4+ T cells (functionally active) into tumor stroma

B2: HPV E7 specific TCR: HPV16 E7 specific TCR (see WO2015/184228), TCRβ and TCRα chains joined by P2A; SEQ ID NO:84; expressed in CD8+ T cells (protein)
chain: MAPGLLCWALLCLLGAGLVDAGVTQSPTHLIKTRGQQVTLRCSPKSGHDTVSWYQQALGQGPQFIFQYYEEEERQRGNFPDRFSGHQFPNYSSELNVNALLLGDSALYLCASSLGWRGGRYNEQFFGPGTRLTVLEDLRNVTPPKVSLFEPSKAEIANKQKATLVCLARGFFPDHVELSWWVNGKEVHSGVCTDPQAYKESNYSYCLSSRLRVSATFWHNPRNHFRCQVQFHGLSEEDKWPEGSPKPVTQNISAEAWGRADCGITSASYQQGVLSATILYEILLGKATLYAVLVSTLVVMAMVKRKNSRAKRSGSGATNFSLLKQAGDVEENPGPMWGVFLLYVSMKMGGTTGQNIDQPTEMTATEGAIVQINCTYQTSGFNGLFWYQQHAGEAPTFLSYNVLDGLEEKGRFSSFLSRSKGYSYLLLKELQMKDSASYLCASVDGNNRLAFGKGNQVVVIPNIQNPEPAVYQLKDPRSQDSTLCLFTDFDSQINVPKTMESGTFITDKCVLDMKAMDSKSNGAIAWSNQTSFTCQDIFKETNATYPSSDVPCDATLTEKSFETDMNLNFQNLLVIVLRILLLKVAGFNLLMTLRLWSS
modifications: HPV16 E7 TCRbeta chain-P2A-TCRalpha chain
notes: HPV16 E7 specific TCR (see WO2015/184228), TCRβ and TCRα chains joined by P2A; expressed in CD8+ T cells
- anti-tumor response (bioluminescence) [2]: anti-tumor response

B3: CER126: Chimeric engulfment receptor: Tim4 binding, Tim4 transmembrane, TLR2 and TRAF2 signaling; SEQ ID NO: 169 (protein)
chain: MSKGLLLLWLVTELWWLYLTPAASEDTIIGFLGQPVTLPCHYLSWSQSRNSMCWGKGSCPNSKCNAELLRTDGTRIISRKSTKYTLLGKVQFGEVSLTISNTNRGDSGVYCCRIEVPGWFNDVKKNVRLELRRATTTKKPTTTTRPTTTPYVTTTTPELLPTTVMTTSVLPTTTPPQTLATTAFSTAVTTCPSTTPGSFSQETTKGSAFTTESETLPASNHSQRSMMTISTDIAVLRPTGSNPGILPSTSQLTTQKTTLTTSESLQKTTKSHQINSRQTILIIACCVGFVLMVLLFLAFLHRFHGLWYMKMMWAWLQAKRKPRKAPSRNICYDAFVSYSERDAYWVENLMVQELENFNPPFKLCLHKRDFIPGKWIIDNIIDSIEKSHKTVFVLSENFVKSEWCKYELDFSHFRLFDENNDAAILILLEPIEKKAIPQRFCKLRKIMNTKTYLEWPMDEAQREGFWVNLRAAIKSMAAASVTPPGSLELLQPGFSKTLLGTKLEAKYLCSACRNVLRRPFQAQCGHRYCSFCLASILSSGPQNCAACVHEGIYEEGISILESSSAFPDNAARREVESLPAVCPSDGCTWKGTLKEYESCHEGRCPLMLTECPACKGLVRLGEKERHLEHECPERSLSCRHCRAPCCGADVKAHHEVCPKFPLTCDGCGKKKIPREKFQDHVKTCGKCRVPCRFHAIGCLETVEGEKQQEHEVQWLREHLAMLLSSVLEAKPLLGDQSHAGSELLQRCESLEKKTATFENIVCVLNREVERVAMTAEAC
modifications: CER126, amino acids 1-22 are signal peptide
- engulfment of SCC152 target cells seen in fluorescent micrographs (SCC152 cells): engulfed
